Assay results published in patent US20210024625A1 (published 2021).

T1: PfRH5 from Plasmodium falciparum strain 3D7 (Plasmodium falciparum, UniProt Q8IFM5 25-526)
T1 sequence: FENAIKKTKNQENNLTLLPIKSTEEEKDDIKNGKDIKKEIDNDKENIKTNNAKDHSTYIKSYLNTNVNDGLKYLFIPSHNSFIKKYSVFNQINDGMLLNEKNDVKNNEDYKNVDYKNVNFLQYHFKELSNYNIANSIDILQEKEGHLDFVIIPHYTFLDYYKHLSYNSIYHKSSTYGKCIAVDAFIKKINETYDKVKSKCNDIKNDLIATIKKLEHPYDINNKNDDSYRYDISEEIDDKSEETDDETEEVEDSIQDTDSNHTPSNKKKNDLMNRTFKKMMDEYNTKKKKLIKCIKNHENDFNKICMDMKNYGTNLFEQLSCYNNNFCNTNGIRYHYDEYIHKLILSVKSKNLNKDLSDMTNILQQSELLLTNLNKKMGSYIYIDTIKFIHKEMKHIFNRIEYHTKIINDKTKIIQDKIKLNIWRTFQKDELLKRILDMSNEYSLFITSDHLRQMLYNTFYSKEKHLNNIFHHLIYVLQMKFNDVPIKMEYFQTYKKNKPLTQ


Experiments:
Test in all cases: cell-based or functional assay
[1] = molecular target: PfRH5 from Plasmodium falciparum strain FCR-1/FVO (Plasmodium falciparum)
[2] = molecular target: PfRH5 from Plasmodium falciparum strain RF7 (Plasmodium falciparum)
[3] = molecular target: PfRH5 from Plasmodium falciparum strain Cam3.II (Plasmodium falciparum)
[4] = molecular target: PfRH5 from Plasmodium falciparum strain W2-mef (Plasmodium falciparum)
[5] = molecular target: T2, PfRH5 from Plasmodium falciparum strain Dd2 (Plasmodium falciparum)
[6] = molecular target: T1, PfRH5 from Plasmodium falciparum strain …
[7] = molecular target: PfRH5 from Plasmodium falciparum strain D10 (Plasmodium falciparum)
[8] = molecular target: PfRH5 from Plasmodium falciparum strain 7G8 (Plasmodium falciparum)
[9] = molecular target: PfRH5 from Plasmodium falciparum strain HB3 (Plasmodium falciparum)
[10] = molecular target: T2, PfRH5 from Plasmodium falciparum strain …; remark: listed apart in the source

Binder | Max growth inhibition (%) [1] | Max growth inhibition (%) [2] | Max growth inhibition (%) [3] | Max growth inhibition (%) [4] | Max growth inhibition (%) [5] | Max growth inhibition (%) [6] | Max growth inhibition (%) [7] | Max growth inhibition (%) [8] | Max growth inhibition (%) [9] | Maximum growth inhibition (%) [10]
H1H29109P (antibody, V domains shown) VH: EVQLVESGGGLVQPGRSLRLSCAVSGFTFDDYAMHWVRQAPGKGLEWVSGISWNSGDIDYADSVKGRFTISRDNAKNSLYLQMNSLRAEDTALYYCAKDTLSGTGTTWYYFDYWGQGTLVTVSS VL: DIQLTQSPSFLSASVGDRVTITCWASQGISSYLIWYQQKPGKAPKLLIYAASTLQSGVPSRFSGSGSGTEFTLTISSLQPEDFATYYCQQVNSYPLTFGGGTKVEIKR | 56.7% | 8.24% | 35.9% | 37.9% | 42% | 32.2% | 44.8% | 39% | 32.2% | –
H1H29171P2 (antibody, V domains shown) VH: QVQLVESGGGVVQPGRSLRLSCAASGFTFSSYGMHWVRQAPGKGLEWVAVISYDGSNKYYADSVKGRFTISRDNSKNTLYLQMNSLRAEDTAVYYCAKDDWNYDAFDIWGQGTMVTVSS VL: not shown | 11.7% | -12.5% | 5.45% | 0.74% | 7.71% | 4.04% | 10.6% | 17% | 0.52% | –
H1H29106P (antibody, V domains shown) VH: QVQLVESGGGVVQSGRSLRLSCAASSFTFSSYGMHWVRQSPGKGLEWVAVISYDGSNKYYGDFVRGRFTISRDNSKNTLYLQMNSLRAEDTAMYYCAREVRRYYYYGMDVWGQGTTVTVSS VL: not shown | 54.3% | 27.4% | 51.7% | 48.9% | 54% | 58% | 74.9% | 55.5% | 48.4% | –
H1H29143P (antibody, V domains shown) VH: EVQLVESGGGLVQPGGSLRLSCAASGFTFNNYAMSWVRQAPGRGLEWVSAISGSGDSTYYSDSVKGRFTISRDNSKNTLYLQMNSLRAEDTAVYYCAKDQGLYYYGSGSFDYWGQGTLVTVSS VL: not shown | 67.2% | – | 53.2% | 58.3% | 62.7% | 60.3% | 79.4% | 61.9% | 60.9% | 56%
H1H29104P (antibody, V domains shown) VH: EVQLVESGGGLVQPGRSLRLSCAASGFRFDDYAMHWVRQAPGKGLEWVSGINWNSGGKGYADSVQGRFTISRDNAKNSLYLQMNSLRTEDTALYYCAKDRGIAARLLSRDAFDMWGQGTMVTVSS VL: DIQLTQSPSFLSASVGDRVTITCWASQDVSSYLAWYQQKPGKSPKLLIFAASTLQGGIPSRFSGSGSGTEFTLTISSLRPEDFATYYCQHLNTYPYTFGQGTKLEIKR | 67.4% | 23.6% | 50% | 47.4% | 61.3% | 34.4% | 55.7% | 35.2% | 39.8% | 54.1%
H1H29183P2 (antibody, V domains shown) VH: QVQLVQSGPEVKKPGASVKVSCKASGYTFTSYGISWVRQAPGQGLEWLGWISGFNGRTDYTEKLQDRITMTTDRSSSTAYMELRSLRYDDTAVYYCARDGLEKLGDYWGQGTLVTVSS VL: not shown | 16.1% | -6.27% | 8.66% | -0.55% | 0.68% | 5.68% | 6.79% | 17.8% | 4.92% | –
H1H29094P (antibody, V domains shown) VH: not shown VL: DIQMTQSPSSLSASVGDRVTITCQASQDINRDLNWYQQKSGKGPKLLIYDASNLETGVPSRFSGNRFGTDFTFTISRLQPEDIATYFCQQYKNLPYTFGQGTKLEIKR | 51.2% | 15.2% | 26.2% | 34.9% | 41.6% | 14.4% | 35.9% | 29.9% | 45.4% | –
H1H29179P2 (antibody, V domains shown) VH: QVQLQESGPGLVKPSQTLSLTCTVSGGSISSSGYYWSWIRQHPGRGLEWIGYIYYSGSTYYNPSLKSRVTISVDTSKNQFSLKLNSVTAADTAVYYCARVDYGSGSSFDYWGQGTLVTVSS VL: not shown | 49% | -2.99% | 33.4% | 22.9% | 13.5% | 24.2% | 62.5% | 34.1% | 40.9% | –
H1H29166P2 (antibody, V domains shown) VH: EVQLVESGGGLLQPGRSLRLSCVASGFTFDDYAMHWVRQAPGKGLEWVSGISWNSESIGYADSVRGRFTISRDNAKNSLYLQMNSLRAEDTALYYCAKAPYSGTYFEYFRHWGQGTLVTVSS VL: not shown | 69.7% | 19.4% | 55.9% | 61.9% | 60% | 53.1% | 70.9% | 54.6% | 54.9% | –
H1H29151P2 (antibody, V domains shown) VH: QVQLVESGGGLVKPGGSLRLSCAASGFTFSDYYMNWVRQAPGKGLEWVSYISNSGNTQYYADSVKGRFTISRDNAKNSLFLQMNSLRAEDTAVYYCTREGLEYSSSEPFDYWGQGTLVTVSS VL: not shown | 53.7% | 18.3% | 26.3% | 53.9% | 58% | 35.5% | 38.7% | 47.5% | 31.7% | –
H1H29127P (antibody, V domains shown) VH: QVQLVESGGGVVQPGRSLRLSCAASGFTFSSYGMHWVRQAPGKGLEWVAAIWYDGSNKYYADSVKGRFTISRDNSKNTLYLQMNSLRAEDTAVYFCARGEHYYGSGPFDPWGQGTLVTVSS VL: DIQMTQSPSSLSASVGDRVTITCRASQSISNYLNWYQQKPGKAPKLLIFAASSLQSGVPSRFSGSGSGTDFTLTISSLQPEDFATYYCQQSYSSPLTFGGGTKVEIKR | 61.1% | 25.7% | 47% | 53.6% | 64.7% | 63.9% | 74.4% | 61.2% | 59.4% | 56.9%
